In assay [1] the target is T1, FXIa (UniProt P03951 19-625).
T1 construct: also called factor XIa
As to the kind of experiment: ELISA, FXIa coated at 10 µg/mL, HRP-anti-V5, n=3. On the technique in general: In an ELISA, binding on a coated surface is turned into a signal by an enzyme label.

The target in assay [2] is T2, FVIIa (UniProt P08709 61-466).
T2 construct: also called factor VIIa
T2 sequence (looked up): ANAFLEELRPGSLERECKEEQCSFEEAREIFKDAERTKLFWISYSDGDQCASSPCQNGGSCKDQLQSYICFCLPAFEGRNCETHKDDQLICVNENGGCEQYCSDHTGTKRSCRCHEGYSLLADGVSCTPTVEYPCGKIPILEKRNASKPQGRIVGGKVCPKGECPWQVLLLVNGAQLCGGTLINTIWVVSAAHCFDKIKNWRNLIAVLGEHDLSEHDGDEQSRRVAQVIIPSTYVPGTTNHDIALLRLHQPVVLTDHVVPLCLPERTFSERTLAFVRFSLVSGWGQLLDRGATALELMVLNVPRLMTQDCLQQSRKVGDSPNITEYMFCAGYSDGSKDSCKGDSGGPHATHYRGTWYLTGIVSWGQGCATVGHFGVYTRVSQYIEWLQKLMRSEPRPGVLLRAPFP
As to the kind of experiment: ELISA, FVIIa coated at 10 µg/mL, HRP-anti-V5, n=3.

Assay [3] has as its target T3, human activated protein C (APC) (human, UniProt P04070 43-461).
T3 construct: Bought (Haematologic Technologies; plasma-derived from Enzyme Research Laboratories); Two-chain disulfide-linked protease
Put plainly: BLI, VHH captured via anti-V5, APC in solution. (In general: BLI is a label-free optical method that tracks binding on a fibre tip over time.)

Assay [4] deals with T3, human activated protein C (APC). As to the kind of experiment: cell-based or functional assay.
For assay [5] the target is unchanged. As to the kind of experiment: BLI (Octet): nanobody captured on anti-V5 sensor, dipped in 500 nM APC; buffer sensor reads 0.06.
Assay [6] addresses T4, human protein C (PC) zymogen (human, UniProt P04070 43-197; P04070 200-461).
T4 construct: Bought
Put plainly: ELISA screen, PC-coated wells, OD450, n=2.

Assay [7] deals with T4, human protein C (PC) zymogen. As to the kind of experiment: ELISA screen, PC-coated wells, OD450, n=2 [Continued].
Assay [8] deals with T3, human activated protein C (APC). As to the kind of experiment: cell-based or functional assay. This is another data set of the same source.
Assay [9] concerns the target T4, human protein C (PC) zymogen. Put plainly: ELISA.

“And” between values parts separate entries of the source, which are not always exact repeats. Identical values can stand only once.

T4 sequence (P04070 43-197, chain 1 of 2): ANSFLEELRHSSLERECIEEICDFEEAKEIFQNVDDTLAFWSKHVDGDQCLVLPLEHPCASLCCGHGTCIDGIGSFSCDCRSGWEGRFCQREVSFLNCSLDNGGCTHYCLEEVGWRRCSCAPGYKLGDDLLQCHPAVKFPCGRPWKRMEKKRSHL
T4 sequence (P04070 200-461, chain 2 of 2): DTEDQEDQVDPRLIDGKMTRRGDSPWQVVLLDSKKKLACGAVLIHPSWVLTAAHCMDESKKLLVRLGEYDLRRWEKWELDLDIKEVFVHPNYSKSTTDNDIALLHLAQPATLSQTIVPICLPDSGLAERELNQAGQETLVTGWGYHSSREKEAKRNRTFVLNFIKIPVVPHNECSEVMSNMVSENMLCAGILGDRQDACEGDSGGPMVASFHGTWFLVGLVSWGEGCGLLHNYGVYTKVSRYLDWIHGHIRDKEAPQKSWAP
T1 sequence (P03951 19-625 limits assumed): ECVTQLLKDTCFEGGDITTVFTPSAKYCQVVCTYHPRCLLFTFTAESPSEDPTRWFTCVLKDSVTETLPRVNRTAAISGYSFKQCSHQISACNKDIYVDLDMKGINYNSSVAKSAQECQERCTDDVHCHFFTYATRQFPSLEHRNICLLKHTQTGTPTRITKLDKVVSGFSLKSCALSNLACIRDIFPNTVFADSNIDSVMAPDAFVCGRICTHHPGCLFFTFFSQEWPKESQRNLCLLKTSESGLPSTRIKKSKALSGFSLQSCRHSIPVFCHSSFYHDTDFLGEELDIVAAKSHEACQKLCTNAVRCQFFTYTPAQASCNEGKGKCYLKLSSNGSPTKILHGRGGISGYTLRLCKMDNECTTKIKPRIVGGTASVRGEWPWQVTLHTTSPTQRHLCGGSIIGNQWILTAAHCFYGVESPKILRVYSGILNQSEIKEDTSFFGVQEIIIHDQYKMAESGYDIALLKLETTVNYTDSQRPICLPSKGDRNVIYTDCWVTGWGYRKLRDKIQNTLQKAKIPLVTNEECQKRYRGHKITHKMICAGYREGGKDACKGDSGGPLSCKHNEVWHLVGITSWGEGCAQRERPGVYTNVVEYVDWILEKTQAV
T3 sequence (P04070 other isoform, or with tags, fused parts or gaps): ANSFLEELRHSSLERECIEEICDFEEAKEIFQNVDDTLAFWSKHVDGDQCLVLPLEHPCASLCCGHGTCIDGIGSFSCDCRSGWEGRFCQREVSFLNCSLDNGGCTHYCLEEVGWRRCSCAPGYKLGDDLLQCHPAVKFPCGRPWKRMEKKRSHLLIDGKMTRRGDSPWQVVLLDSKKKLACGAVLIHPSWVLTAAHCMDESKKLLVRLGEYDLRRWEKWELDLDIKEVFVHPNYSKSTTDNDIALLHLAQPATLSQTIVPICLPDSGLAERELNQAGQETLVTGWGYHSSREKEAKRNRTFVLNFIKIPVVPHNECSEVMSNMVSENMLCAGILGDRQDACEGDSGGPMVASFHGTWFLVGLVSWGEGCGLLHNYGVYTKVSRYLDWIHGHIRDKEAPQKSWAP

B1: LP16 (SR16983-R4-P1-A04) (VHH, not shown: small tags and cut ends)
VHH: QLQLVESGGGLVEAGGSLRLSCAVSGTTFSANTMVWHRQAPGKQREWVARISSSGTTNYADSVRGRFSLSRGNAKNTVYLQMNSLKPDDTAVYYCNAILPSRSIWGRGTQVTVSS
notes: Llama VHH purified from E. coli periplasm
B1: the binding result in assay [1] and in assay [2] was “no binding (tested: 2 µg/mL)” each time.

B2: LP1 (SR16983-R2-P3-D06) (VHH, not shown: small tags and cut ends)
VHH: QLQLVESGGGLVQAGGSLRLSCAASGSTFPINVFAWYRQAPGEQRELGELVAFIGRSGTTNYGDSVKGRFTISRDNAKNTVYLQMDSLRPEDTAVYYCNLGDYWGQGTQVTVSS
notes: as for B1
Usually Kd stands for a measure of binding affinity in units of concentration. Read a low Kd as tighter binding. The koff is the rate constant with which the complex falls apart. Usually kon stands for a measure of how fast the partners come together. B2: in assay [3], the equilibrium dissociation constant (Kd) amounted to 15 nM, the off-rate constant (koff) stood at 0.009 s⁻¹ and the kon stood at 590000 M⁻¹ s⁻¹. The “APC-mediated histone H3 cleavage, 500 nM nanobody” value (from here on “APC-mediated histone H3 cleavage”) in [4] is < 75 % residual activity. Besides, in assay [5], the “APC binding (nm)” value stood at 0.32 nm.

B3: LP17 (SR16983-R4-P1-A09) (VHH, not shown: small tags and cut ends)
VHH: QLQLVESGGGLVQPGGSLRLSCAASGTTSSLNLMGWYRQAPGKKRESVAHMTSDGRTDYVDSVKGRFTISRDNSKNTVYLQMNNLKPEDTAVYICYANPFLGSWSNYWGQGTQVTVSS
notes: as for B1
B3: the binding result in [1] and in assay [2] was “no binding (tested: 2 µg/mL)” in each case.

B4: LP19 (SR16983-R4-P1-B06) (VHH, not shown: small tags and cut ends)
VHH: QLQLVESGGGEVQAGESLRLSCAASGSTFSINVFAWYRDYPGKQRELVAVIGRSGTPRYADSVKGRFTISRDNAKNTVYLQMNSLEPEDTAVYYCHLGDTWGQGTQVTVSS
notes: as for B1
In the case of B4, in assay [3], the Kd is 6.1 nM, the koff was 0.0025 s⁻¹ and the kon was determined as 410000 M⁻¹ s⁻¹. Also, the “APC-mediated histone H3 cleavage” value in [4] is < 75 % residual activity. Moreover, in assay [6], the binding result was “no binding”. The binding result in assay [1] is on record as “no binding (tested: 2 µg/mL)”. In addition, in [2], the binding result is listed as “no binding (tested: 2 µg/mL)”. In addition, the “APC binding (nm)” value in assay [5] was 0.31 nm.

B5: LP3 (SR16983-R2-P4-E09) (VHH, not shown: small tags and cut ends)
VHH: QVQLVESGGGLVQPGGSLTLSCAASGTIESINDMGWYRQAPGKQRELVAAITSGGSTNYADSVKGRFTISRDNAKNTVYLQMNSLKPEDTAVYYCNAEVKRHYYYDSAGYRYWGQGTQVTVSS
notes: as for B1
In assay [3], B5 came in with a dissociation constant (Kd) of 8.8 nM, a dissociation rate constant (koff) of 0.0016 s⁻¹ and a kon of 180000 M⁻¹ s⁻¹. Besides, in assay [7], the binding result was “no binding”. Moreover, the “APC plasma T1/2 (min; mean)” value in [8] was 28.8 min. Further, in assay [1], the binding result was “no binding (tested: 2 µg/mL)”. The binding result in assay [2] was “no binding (tested: 2 µg/mL)”. Moreover, the “APC binding (nm)” value in assay [5] turned out to be 0.29 nm.

B6: LP21 (SR16983-R4-P1-D01) (VHH, not shown: small tags and cut ends)
VHH: QLQLVESGGGLVQAGESLRLSCVLSGSTFGRNVITWYRQPPGKQREFIAMITTSGSTRYADSVKGRFTMSRDTAKNTAFLQMSNLKLEDTAVYYCWTAIAGQGEYWGQGTQVTVSS
notes: as for B1
Take B6: the binding result in assay [1] and in [2] was “no binding (tested: 2 µg/mL)” each time.

B7: LP5 (SR16983-R3-P2-F04) (VHH, not shown: small tags and cut ends)
VHH: QVQLVESGGGLVQHGGSLRLSCAVSGSIFTTATMAWYRQAPGKQRDWVAVITTGGSTRYADDVKGRFAISRDNAKNTVYLQMNNLKPEDTAVYYCNAATRLSSTNYWGQGTQVSVSS
notes: as for B1
Regarding B7, the binding result in [1] and in assay [2] was “no binding (tested: 2 µg/mL)” each time.

B8: LP15 (SR16983-R3-P5-H05) (VHH, not shown: small tags and cut ends)
VHH: QLQLVESGGGLVQAGGSLRLSCAASGTTFSFVYMGWYRQAPGNQRDLVARISSDGSTNYADSVKGRFTISGDNAKNTVYLQMNSLKPEDTARYYCFWNGHTNKWGQGTQVTVSS
notes: as for B1
In assay [3], B8 displayed an equilibrium dissociation constant (Kd) of 16 nM, a dissociation rate constant (koff) of 0.0066 s⁻¹ and an on-rate (kon) of 400000 M⁻¹ s⁻¹. For the same molecule, the binding result in [9] was “no binding”. For the same molecule, the “APC plasma T1/2 (min; mean)” value in assay [8] was determined as 36.4 min. In assay [1], the binding result is recorded as “no binding (tested: 2 µg/mL)”. For the same molecule, the binding result in [2] is “no binding (tested: 2 µg/mL)”. The “APC binding (nm)” value in assay [5] was 0.31 nm.

B9: LP6 (SR16983-R3-P2-F11) (VHH, not shown: small tags and cut ends)
VHH: QLQLVESGGGLVQPGGSLRLSCAASGSIGRLNVMGWFRQAPGKQRELVAVISSDNKKDYADSVQGRFTISRDNSKNTVYLQMNSLKPEDTAVYYCNVRWTMGGNYWGQGTQVTVSS
notes: as for B1
On to B9, for which the binding result in [1] and in assay [2] was “no binding (tested: 2 µg/mL)” throughout.

B10: LP13 (SR16983-R3-P3-G08) (VHH, not shown: small tags and cut ends)
VHH: QLQLVESGGGLVQAGGSLRLSCVASGTTFTIEDIGWHRQAPGKQLELVAVSRGGGNADYSDSVKGRFTISRDNAKTTVYLQMSSLKPEDTAVYYCIAKTKATTKWGRGIQVTVSS
notes: as for B1
Molecule B10 showed a Kd in assay [3] of 1.2 nM. The molecule also came in with an off-rate constant (koff) in assay [3] of 0.00041 s⁻¹. Further, the kon in [3] amounted to 350000 M⁻¹ s⁻¹. The “APC-mediated histone H3 cleavage” value in assay [4] was < 75 % residual activity. The binding result in assay [7] is on record as “no binding”; in assay [1], “no binding (tested: 2 µg/mL)”; in [2] it was “no binding (tested: 2 µg/mL)”. In assay [8], the “APC plasma T1/2 (min; mean)” value was 67.1 min. In [5], the “APC binding (nm)” value amounted to 0.32 nm.

B11: LP14 (SR16983-R3-P4-A06) (VHH, not shown: small tags and cut ends)
VHH: QLQLVESGGGLVQAGGSLRLSCTASGSTSSIVIISWYRQAPGEQRDLVATINNGGDVDVADFVKGRFTISRDNAKNAVYLQMNNLKPEDTAVYYCSARTPSLRVTWFWGQGTQVTVSS
notes: as for B1
Regarding B11, the binding result in [1] and in assay [2] was “no binding (tested: 2 µg/mL)” each time.

B12: LP11 (SR16983-R3-P3-F03) (VHH, not shown: small tags and cut ends)
VHH: QLQLVESGGGLAQAGGSLRLSCAASGRTFVGSYVMGWFRQAPGKEREFVAASSRSTGNTVYLDSVKGRFTISRDDAKNTLFLQMNRLKPEDTAVYYCATRASVNYNYAAWPYWGQGTQVTVSS
notes: Llama VHH purified from E. coli periplasm; also made in CHO cells for the endothelial barrier assay
As to B12, in [3], the Kd stood at 2.1 nM, the off-rate constant (koff) turned out to be 0.00069 s⁻¹ and the kon was found to be 330000 M⁻¹ s⁻¹. Besides, in [4], the “Protac-APTT clotting time, 300 nM nanobody” value is > 90%; the “R46/R41 cleavage ratio of PAR1 by APC” value is > 1 ratio and ≤ 2.5 fold. The binding result in assay [7] is “no binding”. Moreover, in assay [8], the “APC plasma T1/2 (min; mean)” value was 25 min. Moreover, the binding result in [1] was “no binding (tested: 2 µg/mL)”. Also, the binding result in assay [2] is reported as “no binding (tested: 2 µg/mL)”. The “APC binding (nm)” value in assay [5] was 0.3 nm.

B13: LP4 (SR16983-R3-P2-A06) (VHH, not shown: small tags and cut ends)
VHH: QLQLVESGGGLVQAGGSLRLSCAASGSTFNFRIMGWYRQVPGKQRELVAVINSGGSADYTEDVKGRFTISRDDAKSTMYLQMNSLKPEDTAVYYCHAKKVEPTLFTTTYWGQGTQVTVSS
notes: as for B1
Take B13: in [3], binding was characterised by a dissociation constant (Kd) of 4.4 nM, the off-rate constant (koff) came out at 0.0027 s⁻¹ and the kon was determined as 550000 M⁻¹ s⁻¹. Also, the binding result in assay [7] is recorded as “no binding”. In addition, the “APC plasma T1/2 (min; mean)” value in assay [8] was determined as 33 min. Moreover, in assay [1], the binding result was “no binding (tested: 2 µg/mL)”. The binding result in assay [2] is reported as “no binding (tested: 2 µg/mL)”. For the same molecule, the “APC binding (nm)” value in [5] was found to be 0.33 nm.

Values taken from patent US20250163183A1 (COAGULANT THERAPEUTICS, published 2025).
